125 sequences from the supplement of paper PMC9112550, “Optimization of the antimicrobial peptide Bac7 by deep mutational scanning” (BMC Biology, 2022) can be followed below.

The subject of this data set is Escherichia coli TOP10. The data set is described as follows: shrunken log2 fold change of peptide-encoding DNA abundance (4.5 h post-induction vs induction); higher = less antimicrobial activity (less host growth inhibition). The following applies: time post-induction: 4.5 h; library: site-saturation at positions 5, 18, 19, 20.
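Also: peptides expressed intracellularly from a pBAD plasmid library in pooled LB shake-flask culture, induced with 0.3% L-arabinose, DNA abundance read by NGS, three biological replicates, DESeq2 with apeglm shrinkage.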

Take RRIRHRPPRLPRPRPRPTLTPRP: the “shrunken log2 fold change” value was -0.188.

With RRIRTRPPRLPRPRPRPYTQPRP, the “shrunken log2 fold change” value is -0.434.

Turning to RRIRWRPPRLPRPRPRPVQHPRP, the “shrunken log2 fold change” value stood at 0.136.

RRIRSRPPRLPRPRPRPQAEPRP: the “shrunken log2 fold change” value was -0.0131.

For RRIRKRPPRLPRPRPRPCAWPRP, the “shrunken log2 fold change” value amounted to 0.953.

On to RRIRDRPPRLPRPRPRPRQSPRP, for which the “shrunken log2 fold change” value was -0.00504.

Regarding RRIRCRPPRLPRPRPRPPQQPRP, the “shrunken log2 fold change” value was 0.549.

In the case of RRIRMRPPRLPRPRPRPMLKPRP, the “shrunken log2 fold change” value amounted to 0.197.

On to RRIRFRPPRLPRPRPRPNMKPRP, for which the “shrunken log2 fold change” value stood at 0.234.

Regarding RRIRRRPPRLPRPRPRPEISPRP, the “shrunken log2 fold change” value amounted to 0.17.

RRIRVRPPRLPRPRPRPNIVPRP: the “shrunken log2 fold change” value was determined as 0.000276.

Consider RRIRKRPPRLPRPRPRPMASPRP, for which the “shrunken log2 fold change” value was 0.55.

For RRIRHRPPRLPRPRPRPHFFPRP, the “shrunken log2 fold change” value is -0.0737.

As for RRIRARPPRLPRPRPRPQSMPRP, the “shrunken log2 fold change” value was -0.0226.

With RRIRERPPRLPRPRPRPRPNPRP, the “shrunken log2 fold change” value stood at 0.451.

On to RRIRPRPPRLPRPRPRPLRSPRP, for which the “shrunken log2 fold change” value came to 0.167.

As for RRIRIRPPRLPRPRPRPDNDPRP, the “shrunken log2 fold change” value is -0.115.

Consider RRIRYRPPRLPRPRPRPNDCPRP, for which the “shrunken log2 fold change” value is -1.04.

With RRIRMRPPRLPRPRPRPSPKPRP, the “shrunken log2 fold change” value turned out to be 0.593.

RRIRSRPPRLPRPRPRPHTPPRP: the “shrunken log2 fold change” value is -0.318.

Take RRIRSRPPRLPRPRPRPDPHPRP: the “shrunken log2 fold change” value is -0.151.

For RRIRLRPPRLPRPRPRPYCYPRP, the “shrunken log2 fold change” value was -0.238.

As to RRIRMRPPRLPRPRPRPDKEPRP, the “shrunken log2 fold change” value was -0.01.

On to RRIRRRPPRLPRPRPRPFWSPRP, for which the “shrunken log2 fold change” value worked out at 0.18.

On to RRIRMRPPRLPRPRPRPRCVPRP, for which the “shrunken log2 fold change” value came out at 0.581.

As for RRIRQRPPRLPRPRPRPDMIPRP, the “shrunken log2 fold change” value was -0.303.

As to RRIRSRPPRLPRPRPRPYQCPRP, the “shrunken log2 fold change” value is -0.00419.

As for RRIRMRPPRLPRPRPRPISIPRP, the “shrunken log2 fold change” value was -0.313.

Turning to RRIRCRPPRLPRPRPRPCIGPRP, the “shrunken log2 fold change” value was -0.204.

On to RRIRPRPPRLPRPRPRPSAAPRP, for which the “shrunken log2 fold change” value is 0.487.

Turning to RRIRTRPPRLPRPRPRPHEQPRP, the “shrunken log2 fold change” value amounted to 0.177.

As for RRIRGRPPRLPRPRPRPAPYPRP, the “shrunken log2 fold change” value turned out to be 0.218.

Turning to RRIRERPPRLPRPRPRPMVQPRP, the “shrunken log2 fold change” value came out at 0.00276.

As to RRIRVRPPRLPRPRPRPKHIPRP, the “shrunken log2 fold change” value was -0.47.

RRIRRRPPRLPRPRPRPMKKPRP: the “shrunken log2 fold change” value is -0.0239.

For the sequence RRIRVRPPRLPRPRPRPPTFPRP, the “shrunken log2 fold change” value amounted to 0.0282.

As to RRIRVRPPRLPRPRPRPIPSPRP, the “shrunken log2 fold change” value is -0.165.

For the sequence RRIRIRPPRLPRPRPRPVGVPRP, the “shrunken log2 fold change” value is -0.157.

For the sequence RRIRERPPRLPRPRPRPKWHPRP, the “shrunken log2 fold change” value is -0.136.

As to RRIRNRPPRLPRPRPRPTQHPRP, the “shrunken log2 fold change” value was 0.0469.

Consider RRIRQRPPRLPRPRPRPKFRPRP, for which the “shrunken log2 fold change” value is 0.0034.

For RRIRDRPPRLPRPRPRPMTSPRP, the “shrunken log2 fold change” value is -0.169.

Take RRIRSRPPRLPRPRPRPHWGPRP: the “shrunken log2 fold change” value was -0.107.

Consider RRIRRRPPRLPRPRPRPKHSPRP, for which the “shrunken log2 fold change” value was 0.0683.

Take RRIRHRPPRLPRPRPRPKIIPRP: the “shrunken log2 fold change” value was -1.08.

With RRIRHRPPRLPRPRPRPRKYPRP, the “shrunken log2 fold change” value is -0.556.

RRIRHRPPRLPRPRPRPVMMPRP: the “shrunken log2 fold change” value is -0.123.

Consider RRIRERPPRLPRPRPRPVEYPRP, for which the “shrunken log2 fold change” value is -0.0437.

As to RRIRERPPRLPRPRPRPRLTPRP, the “shrunken log2 fold change” value is -0.0882.

On to RRIRLRPPRLPRPRPRPKITPRP, for which the “shrunken log2 fold change” value was -0.203.

Regarding RRIRERPPRLPRPRPRPLMFPRP, the “shrunken log2 fold change” value is -0.32.

Turning to RRIRYRPPRLPRPRPRPPAMPRP, the “shrunken log2 fold change” value was -0.35.

With RRIRQRPPRLPRPRPRPDFHPRP, the “shrunken log2 fold change” value stood at 0.0254.

As to RRIRCRPPRLPRPRPRPFPYPRP, the “shrunken log2 fold change” value is -0.645.

RRIRNRPPRLPRPRPRPLGHPRP: the “shrunken log2 fold change” value was -0.262.

Take RRIRGRPPRLPRPRPRPVCHPRP: the “shrunken log2 fold change” value was 0.54.

For the sequence RRIRDRPPRLPRPRPRPGNEPRP, the “shrunken log2 fold change” value was -0.159.

In the case of RRIRIRPPRLPRPRPRPPKPPRP, the “shrunken log2 fold change” value came out at 0.0539.

In the case of RRIRIRPPRLPRPRPRPMMNPRP, the “shrunken log2 fold change” value was -0.442.

As for RRIRYRPPRLPRPRPRPVQHPRP, the “shrunken log2 fold change” value is -0.247.

With RRIRYRPPRLPRPRPRPMKRPRP, the “shrunken log2 fold change” value is -0.0321.

With RRIRPRPPRLPRPRPRPVAFPRP, the “shrunken log2 fold change” value is -0.0622.

As to RRIRPRPPRLPRPRPRPWKNPRP, the “shrunken log2 fold change” value was -0.0413.

Consider RRIRFRPPRLPRPRPRPGCAPRP, for which the “shrunken log2 fold change” value stood at 1.03.

RRIRQRPPRLPRPRPRPSALPRP: the “shrunken log2 fold change” value is -0.0016.

Regarding RRIRYRPPRLPRPRPRPRTLPRP, the “shrunken log2 fold change” value was -0.537.

Regarding RRIRPRPPRLPRPRPRPEFYPRP, the “shrunken log2 fold change” value was -0.173.

Take RRIRRRPPRLPRPRPRPQNRPRP: the “shrunken log2 fold change” value was found to be 0.318.

Take RRIRMRPPRLPRPRPRPAPFPRP: the “shrunken log2 fold change” value is 0.575.

Turning to RRIRWRPPRLPRPRPRPTQIPRP, the “shrunken log2 fold change” value came to 0.132.

In the case of RRIRVRPPRLPRPRPRPVICPRP, the “shrunken log2 fold change” value is -0.0928.

With RRIRARPPRLPRPRPRPQEEPRP, the “shrunken log2 fold change” value was 0.0293.

RRIRSRPPRLPRPRPRPNDSPRP: the “shrunken log2 fold change” value was -0.342.

As to RRIRYRPPRLPRPRPRPGRSPRP, the “shrunken log2 fold change” value is -0.184.

As to RRIRFRPPRLPRPRPRPIAFPRP, the “shrunken log2 fold change” value turned out to be 0.0375.

On to RRIRVRPPRLPRPRPRPGQMPRP, for which the “shrunken log2 fold change” value was -0.0386.

Take RRIRARPPRLPRPRPRPHGNPRP: the “shrunken log2 fold change” value was -0.0231.

As to RRIRYRPPRLPRPRPRPMENPRP, the “shrunken log2 fold change” value was -0.207.

Consider RRIRMRPPRLPRPRPRPRLWPRP, for which the “shrunken log2 fold change” value stood at 0.103.

With RRIRDRPPRLPRPRPRPQRHPRP, the “shrunken log2 fold change” value was 0.0682.

Take RRIRMRPPRLPRPRPRPACGPRP: the “shrunken log2 fold change” value stood at 0.811.

Take RRIRVRPPRLPRPRPRPSCKPRP: the “shrunken log2 fold change” value was -0.207.

RRIRTRPPRLPRPRPRPYKGPRP: the “shrunken log2 fold change” value is -0.0116.

As for RRIRDRPPRLPRPRPRPSVDPRP, the “shrunken log2 fold change” value was determined as 0.0621.

Regarding RRIRGRPPRLPRPRPRPYTKPRP, the “shrunken log2 fold change” value is -0.216.

As to RRIRVRPPRLPRPRPRPYINPRP, the “shrunken log2 fold change” value is -0.724.

For the sequence RRIRCRPPRLPRPRPRPAVMPRP, the “shrunken log2 fold change” value came out at 0.067.

For RRIRKRPPRLPRPRPRPKRLPRP, the “shrunken log2 fold change” value was 0.0257.

As to RRIRYRPPRLPRPRPRPSDRPRP, the “shrunken log2 fold change” value was -0.307.

Regarding RRIRMRPPRLPRPRPRPMMWPRP, the “shrunken log2 fold change” value amounted to 0.274.

Take RRIRKRPPRLPRPRPRPGHHPRP: the “shrunken log2 fold change” value turned out to be 0.228.

For the sequence RRIRFRPPRLPRPRPRPLREPRP, the “shrunken log2 fold change” value was 0.618.

Take RRIRYRPPRLPRPRPRPMAIPRP: the “shrunken log2 fold change” value was -0.0433.

As for RRIRARPPRLPRPRPRPFWNPRP, the “shrunken log2 fold change” value came to 0.127.

On to RRIRARPPRLPRPRPRPCVRPRP, for which the “shrunken log2 fold change” value amounted to 0.135.

Take RRIRPRPPRLPRPRPRPSKGPRP: the “shrunken log2 fold change” value was determined as 0.0318.

As to RRIRHRPPRLPRPRPRPNKEPRP, the “shrunken log2 fold change” value worked out at 0.000399.

For the sequence RRIRDRPPRLPRPRPRPWMQPRP, the “shrunken log2 fold change” value was -0.0999.

Take RRIRWRPPRLPRPRPRPGNFPRP: the “shrunken log2 fold change” value was -0.149.

On to RRIRYRPPRLPRPRPRPMLHPRP, for which the “shrunken log2 fold change” value is -0.404.

As for RRIRDRPPRLPRPRPRPEGLPRP, the “shrunken log2 fold change” value stood at 0.0425.

Regarding RRIRLRPPRLPRPRPRPLNMPRP, the “shrunken log2 fold change” value is -0.461.

In the case of RRIRARPPRLPRPRPRPIVDPRP, the “shrunken log2 fold change” value was determined as 0.543.

For RRIRSRPPRLPRPRPRPQPSPRP, the “shrunken log2 fold change” value is 0.296.

As to RRIRGRPPRLPRPRPRPVDAPRP, the “shrunken log2 fold change” value is 0.395.

As for RRIRGRPPRLPRPRPRPYTTPRP, the “shrunken log2 fold change” value is -0.083.

Consider RRIRHRPPRLPRPRPRPYPRPRP, for which the “shrunken log2 fold change” value is -0.27.

As to RRIRGRPPRLPRPRPRPYMSPRP, the “shrunken log2 fold change” value was 0.0366.

For RRIRIRPPRLPRPRPRPGQFPRP, the “shrunken log2 fold change” value was -0.0255.

Regarding RRIRARPPRLPRPRPRPFYTPRP, the “shrunken log2 fold change” value is -0.685.

Consider RRIRPRPPRLPRPRPRPRSLPRP, for which the “shrunken log2 fold change” value turned out to be 0.14.

RRIRCRPPRLPRPRPRPQWGPRP: the “shrunken log2 fold change” value came out at 0.502.

Consider RRIRYRPPRLPRPRPRPRNPPRP, for which the “shrunken log2 fold change” value turned out to be 0.0734.

As for RRIRVRPPRLPRPRPRPDSNPRP, the “shrunken log2 fold change” value was -0.159.

Consider RRIRTRPPRLPRPRPRPTFGPRP, for which the “shrunken log2 fold change” value was 0.0406.

Consider RRIRPRPPRLPRPRPRPWYSPRP, for which the “shrunken log2 fold change” value is -0.22.

For the sequence RRIRGRPPRLPRPRPRPVFHPRP, the “shrunken log2 fold change” value worked out at 0.0913.

As to RRIRHRPPRLPRPRPRPFRRPRP, the “shrunken log2 fold change” value was found to be 0.0303.

Regarding RRIRIRPPRLPRPRPRPTYSPRP, the “shrunken log2 fold change” value is -0.408.

For the sequence RRIRKRPPRLPRPRPRPSSKPRP, the “shrunken log2 fold change” value was -0.181.

Take RRIRCRPPRLPRPRPRPCPRPRP: the “shrunken log2 fold change” value came to 0.00856.

On to RRIRGRPPRLPRPRPRPTPVPRP, for which the “shrunken log2 fold change” value was found to be 1.07.

For the sequence RRIRLRPPRLPRPRPRPIYQPRP, the “shrunken log2 fold change” value was -0.385.

Take RRIRRRPPRLPRPRPRPHKFPRP: the “shrunken log2 fold change” value was -0.132.

With RRIRARPPRLPRPRPRPCQRPRP, the “shrunken log2 fold change” value turned out to be 0.246.
